# Results from US20260250318A1, “COMPOSITIONS AND METHODS FOR CROSSING THE BLOOD BRAIN BARRIER” (VOYAGER THERAPEUTICS, INC., priority 2022, published 2026).
# Positions count from the first letter of the chain named.
# T1: ALPL (Homo sapiens, UniProt P05186)
# T1 construct: expressed in transfected cells; host or cells: HEK 293T
# T1 sequence (P05186 whole entry, looked up): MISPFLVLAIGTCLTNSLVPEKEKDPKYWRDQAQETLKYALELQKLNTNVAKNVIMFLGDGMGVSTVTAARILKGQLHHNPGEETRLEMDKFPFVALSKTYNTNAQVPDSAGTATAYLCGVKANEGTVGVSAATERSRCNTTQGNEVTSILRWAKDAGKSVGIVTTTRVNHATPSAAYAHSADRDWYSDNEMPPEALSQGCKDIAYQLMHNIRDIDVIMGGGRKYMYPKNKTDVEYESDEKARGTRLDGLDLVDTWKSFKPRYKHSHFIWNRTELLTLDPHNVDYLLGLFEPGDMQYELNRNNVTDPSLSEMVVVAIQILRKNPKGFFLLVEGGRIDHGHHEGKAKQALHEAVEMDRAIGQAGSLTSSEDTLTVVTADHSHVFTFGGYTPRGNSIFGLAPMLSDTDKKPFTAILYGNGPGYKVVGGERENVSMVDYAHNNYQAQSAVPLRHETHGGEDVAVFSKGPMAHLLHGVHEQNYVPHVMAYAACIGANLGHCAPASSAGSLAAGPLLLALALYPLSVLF
# T2: ALPL (Homo sapiens, UniProt P05186)
# T2 sequence (P05186 18-501): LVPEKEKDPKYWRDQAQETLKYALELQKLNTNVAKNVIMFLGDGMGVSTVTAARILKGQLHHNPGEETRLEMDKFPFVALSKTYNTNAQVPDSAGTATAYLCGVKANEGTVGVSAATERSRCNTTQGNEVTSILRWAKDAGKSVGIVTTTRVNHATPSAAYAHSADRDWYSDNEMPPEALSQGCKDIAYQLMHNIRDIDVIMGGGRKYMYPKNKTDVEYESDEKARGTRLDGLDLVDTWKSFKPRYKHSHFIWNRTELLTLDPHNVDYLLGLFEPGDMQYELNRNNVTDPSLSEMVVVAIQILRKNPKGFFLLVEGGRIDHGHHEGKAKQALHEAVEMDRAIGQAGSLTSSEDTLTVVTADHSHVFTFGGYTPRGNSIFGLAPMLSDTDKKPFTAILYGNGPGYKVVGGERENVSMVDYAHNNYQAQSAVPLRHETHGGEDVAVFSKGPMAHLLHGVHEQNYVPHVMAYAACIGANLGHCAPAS
# B1: TTM-001: AAV9 capsid variant comprising SPHSKA (SEQ ID NO: 941) in loop IV (protein)
# chain 1: MAADGYLPDWLEDNLSEGIREWWALKPGAPQPKANQQHQDNARGLVLPGYKYLGPGNGLDKGEPVNAADAAALEHDKAYDQQLKAGDNPYLKYNHADAEFQERLKEDTSFGGNLGRAVFQAKKRLLEPLGLVEEAAKTAPGKKRPVEQSPQEPDSSAGIGKSGAQPAKKRLNFGQTGDTESVPDPQPIGEPPAAPSGVGSLTMASGGGAPVADNNEGADGVGSSSGNWHCDSQWLGDRVITTSTRTWALPTYNNHLYKQISNSTSGGSSNDNAYFGYSTPWGYFDFNRFHCHFSPRDWQRLINNNWGFRPKRLNFKLFNIQVKEVTDNNGVKTIANNLTSTVQVFTDSDYQLPYVLGSAHEGCLPPFPADVFMIPQYGYLTLNDGSQAVGRSSFYCLEYFPSQMLRTGNNFQFSYEFENVPFHSSYAHSQSLDRLMNPLIDQYLYYLSKTINGSGSPHSKAQNQQTLKFSVAGPSNMAVQGRNYIPGPSYRQQRVSTTVTQNNNSEFAWPGASSWALNGRNSLMNPGPAMASHKEGEDRFFPLSGSLIFGKQGTGRDNVDADKVMITNEEEIKTTNPVATESYGQVATNHQSAQAQAQTGWVQNQGILPGMVWQDRDVYLQGPIWAKIPHTDGNFHPSPLMGGFGMKHPPPQILIKNTPVPADPPTAFNKDKLNSFITQYSTGQVSVEIEWELQKENSKRWNPEIQYTSNYYKSNNVEFAVNTEGVYSEPRPIGTRYLTRNL
# chain 2: GSGSPHSKAQNQQT
# B2: TTM-002: AAV9 capsid variant comprising HDSPHK (SEQ ID NO: 2) in loop IV (protein)
# chain 1: B1 chain 1 with S454H, G455D, S459K, K460S, A461G
# chain 2: GHDSPHKSGQNQQT
# Columns and labels:
# ALPL [1] = target: T1, ALPL; format: cell-based; conditions: for fold increase in transduction by luciferase assay in cells expressing ALPL: relative to pCMV6 transfected cells, 24 hours post-transduction; for Luciferase Activity (RLU): Table 30, ALPL transfected cells
# Protocol: Briefly, a transduction assay was performed in that HEK 293T cells were transfected via calcium phosphate transfection with a plasmid expressing ALPL, an AAVR positive control, or a pCMV6 negative control (250 ng or 500 ng of plasmid). AAVR is a universal AAV entry factor involved in AAV transduction. […] At 24-hours post-transduction, GFP expression and luciferase activity were measured to quantify and observe AAV cellular transduction. […] The TTM-002, TTM-006, TTM-018, and TTM-019 capsid variants all comprised the SPH motif immediately subsequent to position 455, numbered relative to SEQ ID NO: 138 and a positive residue in one of the next three residues subsequent to the SPH motif.
# To determine if the TTM-001 and TTM-002 capsid variants could bind to both the human ALPL protein (NM_000478.6, which is incorporated by reference herein) and the mouse ALPL ortholog (NM_001287172.1, which is incorporated by reference herein), HEK 293T cells were transfected via calcium phosphate transfection with a plasmid expressing human ALPL, the murine ortholog of ALPL, or a pCMV6 negative control. At 24 hours post-transfection, the HEK 293T cells expressing the ALPL receptor were transduced with an AAV particle comprising the TTM-001 capsid variant, the TTM-002 capsid variant, or an AAV9 control capsid protein, expressing a Luc2-GFP payload. At 24-hours post-transduction, luciferase activity (RLU) was measured to quantify AAV cellular transduction.
# ALPL [2] = target: T2, ALPL; experiment: SPR (Biacore 8K) binding of peptide ligands to ALPL; conditions: 50 μM peptides or 250 nM capsids flowed over
# Protocol: Binding and interaction between the peptides and the ALPL receptor were measured by Surface Plasmon Resonance (SPR) on a Biacore 8K instrument. The biotinylated peptides in Table 37 were captured on the streptavidin biosensor chip and 1000 nM of ALPL and buffer were passed over the peptides to monitor binding. […] His-tagged ALPL was then captured on the chip pre-immobilized with anti-His antibody, and 50 μM of the peptides in Table 37 or 250 nM of the AAV9 control capsid, the TTM-001 capsid variant (SEQ ID NO: 981), or the TTM-002 capsid variant (SEQ ID NO: 982) were flowed over the ALPL to check for binding. […] The longer peptides derived from TTM-002,
# were also flowed over the his-tagged ALPL captured on the CM5 sensor chip pre-immobilized with anti-His antibody.
# Binding and interaction between the phosho-peptides and the ALPL receptor were also measured by SPR. The biotinylated and phosphorylated peptides in Table 38 were captured on the streptavidin biosensor chip along with their non-phosphorylated counterparts, […] (SEQ ID NO: 4500) and […] (SEQ ID NO: 4503). ALPL and buffer were passed over the peptides to monitor binding. The concentration of ALPL used ranged from 0 to 500 nM (0 nM, 125 nM, 250 nM, and 500 nM).
# In a second experiment, his-tagged ALPL was first captured on a CM5 sensor chip pre-immobilized with anti-His antibody. The phosphorylated peptides in Table 38 and their non-phosphorylated counterparts, […] (SEQ ID NO: 4500) and […] (SEQ ID NO: 4503) and buffer were flowed over the ALPL protein to monitor binding.
# ALPL [3] = target: T2, ALPL; format: cell-based; design: expressed in transfected cells; host or cells: HEK 293T; conditions: viral genomes, 2 or 3 hours post-incubation, relative to pCMV6
# Protocol: Binding and internalization of AAV capsid variants comprising the TTM-001 capsid variant, the TTM-002 capsid variant, or the AAV9 control capsid was also investigated in cells engineered to express ALPL. HEK 293T cells were transfected via calcium phosphate transfection with a plasmid expressing ALPL, an AAVR positive control, or a pCMV6 negative control. At 24 hours post-transfection, the HEK 293T cells expressing the ALPL receptor were incubated with an AAV particle comprising the TTM-001 capsid variant, the TTM-002 capsid variant, or an AAV9 control capsid protein, expressing a GFP payload. At 2 or 3-hours post-incubation, cells were washed to remove unbound AAV particles and DNA was extracted to quantify viral genomes.
Molecule,fold increase in transduction by luciferase assay in cells expressing ALPL (ALPL [1]),"binding to ALPL by SPR, His-tagged ALPL captured on chip (ALPL [2])",fold increase in binding/internalization in cells expressing ALPL (ALPL [3]),Luciferase Activity (RLU) (ALPL [1]),"transduction by immunofluorescence microscopy in cells expressing ALPL (ALPL [1]; GFP, compared to AAV9 control capsid)"
AAV9: wild-type AAV9 control capsid [reference compound],not affected,No detectable binding,unaffected,,
B1,,Binding to ALPL was detected,3 fold,"93,268 RLU",
B2,45 fold,Binding to ALPL was detected,6 fold,"46,182 RLU",a significant increase in the transduction
